Measurements reported in doi:10.1101/2025.02.04.635266.

Target: IgG1-DNP-E430G (human)
Assay: single molecule force spectroscopy

For “DNP-unspecific IgG1-E430G (tip-linked) (antibody)”, the koff was 1.8 s⁻¹.
